Target: the molecule itself

B1: SEPT7 (residues 29-437) with N-terminal His-tag (domain or fragment, human, UniProt Q16181-1 29-437, looked up)
chain: GYVGFANLPNQVYRKSVKRGFEFTLMVVGESGLGKSTLINSLFLTDLYSPEYPGPSHRIKKTVQVEQSKVLIKEGGVQLLLTIVDTPGFGDAVDNSNCWQPVIDYIDSKFEDYLNAESRVNRRQMPDNRVQCCLYFIAPSGHGLKPLDIEFMKRLHEKVNIIPLIAKADTLTPEECQQFKKQIMKEIQEHKIKIYEFPETDDEEENKLVKKIKDRLPLAVVGSNTIIEVNGKRVRGRQYPWGVAEVENGEHCDFTILRNMLIRTHMQDLKDVTNNVHYENYRSRKLAAVTYNGVDNNKNKGQLTKSPLAQMEEERREHVAKMKKMEMEMEQVFEMKVKEKVQKLKDSEAELQRRHEQMKKNLEAQHKELEEKRRQFEDEKANWEAQQRILEQQNSSRTLEKNKKKGKIF
  binding result: binds

Source: article doi:10.1101/569251 (bioRxiv, 2019)
